The results in this text go back to paper PMC8715002, “Biochemical and Structural Characterization of a Novel Bacterial Tannase From Lachnospiraceae bacterium in Ruminant Gastrointestinal Tract” (Frontiers in Bioengineering and Biotechnology, 2021).

What all share (test): purified protein
Holding throughout (type): biochemical, Lachnospiraceae bacterium
Holding throughout (settings): pH 7.0, 50 °C, 0.2–5 mM substrate

Data set [1] concerns T1, CCCCCCCCCCCCOC(=O)c1cc(O)c(O)c(O)c1.
T1 construct: about 68 kDa, monomer; catalytic Ser205/Asp582/His614; forward primer reads MSQSTATR; signal peptide not discussed

In data set [2] the test system is T2, CCCOC(=O)c1cc(O)c(O)c(O)c1.
T2 construct: about 68 kDa, monomer; catalytic Ser205/Asp582/His614; forward primer reads MSQSTATR; signal peptide not discussed

In data set [3] the test system is T3, CCOC(=O)c1cc(O)c(O)c(O)c1.
T3 construct: about 68 kDa, monomer; catalytic Ser205/Asp582/His614; forward primer reads MSQSTATR; signal peptide not discussed

Data set [4] concerns T4, COC(=O)c1cc(O)c(O)c(O)c1.
T4 construct: about 68 kDa, monomer; catalytic Ser205/Asp582/His614; forward primer reads MSQSTATR; signal peptide not discussed

For the substance “TanALb (tannase from Lachnospiraceae bacterium) (Lachnospiraceae bacterium)”, the Michaelis-Menten constant (Km) was determined as 1800 ± 260 µM in data set [1], 2000 ± 220 µM in data set [2], 2600 ± 190 µM in data set [3] and 2800 ± 350 µM in data set [4]. The kcat is 24.6 ± 5.2 s⁻¹ in data set [1], 44.2 ± 3.6 s⁻¹ in data set [2], 78.8 ± 10.4 s⁻¹ in data set [3] and 82.5 ± 6.3 s⁻¹ in data set [4]. In addition, the kcat/Km in data set [1] was 15300 ± 2100 M⁻¹ s⁻¹; in data set [2] it was 24500 ± 4000 M⁻¹ s⁻¹; in data set [3] it was 33300 ± 7300 M⁻¹ s⁻¹; in data set [4], 36400 ± 4400 M⁻¹ s⁻¹.

A word on the Km: it is the substrate concentration at which the rate is half of its maximum. In general, kcat refers to the number of substrate molecules converted per active site and unit of time at saturation. The term kcat/Km denotes the second-order rate constant that governs catalysis at low substrate concentration.
